The values below come from the supplement of paper PMC10567573.

To fix the notation:
B1: PDZK1 (parent)
chain: FQAKKIPIVSSLADPLDTPPDSKE
B2: ZNF511 (parent)
chain: YEHHYHTLHGNVCSFCKRAFPSGH
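Also: lentivirally expressed fusions sorted by FACS into six bins by GFP to DsRed ratio, PSI derived from sequencing read proportions per bin multiplied by bin number.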

Variants of B1 are the subject of the first series. As to the kind of experiment: protein stability index of a GFP-peptide fusion (GPS, HEK-293T) (PSI 1-6); higher = more stable. As to conditions: c terminus: a fixed tail appended.
In the case of FQAKKIPIVSSLADPLDTPPRSKE, the protein stability index worked out at 2.76.
With FQAKKIPIVSSLADPLDTPPGSKE, the protein stability index worked out at 2.89.
FQAKKIPIVSSLADPLDYPPDSKE: the protein stability index stood at 3.33.
Regarding FQAKKIPIVSSLADPLDIPPDSKE, the protein stability index turned out to be 3.75.
Turning to FQAKKIPIVSSLADPLDVPPDSKE, the protein stability index was found to be 3.57.
Take FQAKKIPIVSSLADPLDMPPDSKE: the protein stability index stood at 3.73.
As for FQAKKIPIVSSLADPLDEPPDSKE, the protein stability index is 3.75.
As for FQAKKIPIVSSLADPLDWPPDSKE, the protein stability index was found to be 3.86.
For the variant FQAKKIPIVSSLADPLDAPPDSKE, the protein stability index is 3.59.
As for FQAKKIPIVSSLADPLDKPPDSKE, the protein stability index came out at 3.81.
Still for that read-out and setting: under FQAKKIPIVSSLADPLDDPPDSKE stands 3.68; under FQAKKIPIVSSLADPLDHPPDSKE, 3.29; under FQAKKIPIVSSLADPLDSPPDSKE, 3.53.
Regarding FQAKKIPIVSSLADPLDRPPDSKE, the protein stability index stood at 3.6.
In the case of FQAKKIPIVSSLADPLDFPPDSKE, the protein stability index was 3.55.
Still for that read-out and setting: with FQAKKIPIVSSLADPLDNPPDSKE the figure was 3.48; with FQAKKIPIVSSLADPLDCPPDSKE, 3.46.
FQAKKIPIVSSLADPLDGPPDSKE: the protein stability index was found to be 3.62.
On to FQAKKIPIVSSLADPVDTPPDSKE, for which the protein stability index was found to be 3.91.
With FQAKKIPIVSSLADPNDTPPDSKE, the protein stability index amounted to 4.27.
Consider FQAKKIPIVSSLADPSDTPPDSKE, for which the protein stability index turned out to be 4.13.
For the variant FQAKKIPIVSSLADPKDTPPDSKE, the protein stability index amounted to 3.76.
Same read-out and setting: with FQAKKIPIVSSLADPFDTPPDSKE the figure was 2.89.
Still for that read-out and setting: under FQAKKIPIVSSLADPWDTPPDSKE stands 2.99; under FQAKKIPIVSSLADPYDTPPDSKE, 3.47; under FQAKKIPIVSSLADPADTPPDSKE, 3.85.
As for FQAKKIPIVSSLADPRDTPPDSKE, the protein stability index came to 3.77.
On the same count and under the same terms, under FQAKKIPIVSSLADPCDTPPDSKE stands 3.72.
In the case of FQAKKIPIVSSLADPGDTPPDSKE, the protein stability index worked out at 3.85.
In the case of FQAKKIPIVSSLADPIDTPPDSKE, the protein stability index is 3.91.
In the case of FQAKKIPIVSSLADPEDTPPDSKE, the protein stability index amounted to 4.07.
FQAKKIPIVSSLADPMDTPPDSKE: the protein stability index stood at 3.79.
For FQAKKIPIVSSLADPLDTPQDSKE, the protein stability index was found to be 3.73.
Regarding FQAKKIPIVSSLADPLDTPTDSKE, the protein stability index was 3.58.
Turning to FQAKKIPIVSSLADPLDTPFDSKE, the protein stability index was found to be 3.17.
Regarding FQAKKIPIVSSLADPLDTPNDSKE, the protein stability index was found to be 3.7.
Turning to FQAKKIPIVSSLADPLDTPLDSKE, the protein stability index was 3.35.
With FQAKKIPIVSSLADPLDTPYDSKE, the protein stability index worked out at 3.89.
For the variant FQAKKIPIVSSLADPLDTPMDSKE, the protein stability index worked out at 3.75.
As for FQAKKIPIVSSLADPLDTPVDSKE, the protein stability index stood at 3.74.
As for FQAKKIPIVSSLADPLDTPRDSKE, the protein stability index is 3.77.
In the case of FQAKKIPIVSSLADPLDTPSDSKE, the protein stability index came to 3.62.
As to FQAKKIPIVSSLADPLDTPGDSKE, the protein stability index was 4.28.
On to FQAKKIPIVSSLADPLDTPHDSKE, for which the protein stability index worked out at 3.53.
As to FQAKKIPIVSSLADPLDTPCDSKE, the protein stability index came out at 3.94.
As for FQAKKIPIVSSLADPLDTPIDSKE, the protein stability index was 3.61.
Consider FQAKKIPIVSSLADPLDTPADSKE, for which the protein stability index worked out at 4.05.
In the case of FQAKKIPIVSSLADPLDTPDDSKE, the protein stability index was found to be 4.28.
On to FQAKKIPIVSSLADPLDTPWDSKE, for which the protein stability index was 2.62.
As for FQAKKIPIVSSLADPLDTPEDSKE, the protein stability index was 4.21.
As to FQAKKIPIVSSLADPLDTPKDSKE, the protein stability index amounted to 3.88.
On the same count and under the same terms, with FQAKKIPIVSSLADPLATPPDSKE the figure was 3.75; with FQAKKIPIVSSLADPLLTPPDSKE, 3.28.
Take FQAKKIPIVSSLADPLDTFPDSKE: the protein stability index came out at 2.9.
Same read-out and setting: under FQAKKIPIVSSLADPLDTWPDSKE stands 3.19; under FQAKKIPIVSSLADPLDTVPDSKE, 3.54.
With FQAKKIPIVSSLADPLDTRPDSKE, the protein stability index stood at 3.56.
Turning to FQAKKIPIVSSLADPLDTMPDSKE, the protein stability index is 3.72.
In the case of FQAKKIPIVSSLADPLDTSPDSKE, the protein stability index was 3.67.
Turning to FQAKKIPIVSSLADPLDTKPDSKE, the protein stability index is 3.66.
Consider FQAKKIPIVSSLADPLDTNPDSKE, for which the protein stability index worked out at 3.88.
The same measure, in the same setting: with FQAKKIPIVSSLADPLDTQPDSKE the figure was 4.17.
For FQAKKIPIVSSLADPLDTYPDSKE, the protein stability index turned out to be 3.81.
As to FQAKKIPIVSSLADPLDTIPDSKE, the protein stability index was 3.55.
Take FQAKKIPIVSSLADPLDTAPDSKE: the protein stability index was 3.43.
Same read-out and setting: with FQAKKIPIVSSLADPLDTLPDSKE the figure was 3.2; with FQAKKIPIVSSLADPLDTGPDSKE, 3.91.
For the variant FQAKKIPIVSSLADPLDTEPDSKE, the protein stability index stood at 3.35.
Turning to FQAKKIPIVSSLADPLDTHPDSKE, the protein stability index came out at 4.01.
Regarding FQAKKIPIVSSLADPLDTCPDSKE, the protein stability index amounted to 3.53.
As to FQAKKIPIVSSLADPLDTDPDSKE, the protein stability index turned out to be 3.87.
Consider FQAKKIPIVSSLADPLDTTPDSKE, for which the protein stability index was found to be 3.85.
FQAKKIPIVSSLADYLDTPPDSKE: the protein stability index came to 3.32.
Still for that read-out and setting: with FQAKKIPIVSSLADWLDTPPDSKE the figure was 2.45; with FQAKKIPIVSSLADVLDTPPDSKE, 3.43.
Still for that read-out and setting: under FQAKKIPIVSSLADPLDTPPDSGE stands 3.94; under FQAKKIPIVSSLADPLDTPPDSRE, 3.23; under FQAKKIPIVSSLADPLDTPPDSVE, 3.33.

In the next series the parent is B2. The series is described as above. As to conditions: c terminus: a fixed tail appended.
Regarding CEHHYHTLHGNVCSFCKRAFPSGH, the protein stability index is 4.05.
Consider REHHYHTLHGNVCSFCKRAFPSGH, for which the protein stability index was 2.22.
Still for that read-out and setting: under HEHHYHTLHGNVCSFCKRAFPSGH stands 2.81; under IEHHYHTLHGNVCSFCKRAFPSGH, 2.89.
As for WEHHYHTLHGNVCSFCKRAFPSGH, the protein stability index is 2.07.
In the case of NEHHYHTLHGNVCSFCKRAFPSGH, the protein stability index was 3.38.
Consider LEHHYHTLHGNVCSFCKRAFPSGH, for which the protein stability index worked out at 2.75.
Regarding AEHHYHTLHGNVCSFCKRAFPSGH, the protein stability index stood at 3.02.
With MEHHYHTLHGNVCSFCKRAFPSGH, the protein stability index amounted to 2.63.
Consider EEHHYHTLHGNVCSFCKRAFPSGH, for which the protein stability index is 3.
For PEHHYHTLHGNVCSFCKRAFPSGH, the protein stability index was 2.98.
The same measure, in the same setting: under SEHHYHTLHGNVCSFCKRAFPSGH stands 3.29; under FEHHYHTLHGNVCSFCKRAFPSGH, 2.72; under DEHHYHTLHGNVCSFCKRAFPSGH, 3.67.
Turning to TEHHYHTLHGNVCSFCKRAFPSGH, the protein stability index turned out to be 2.75.
Consider VEHHYHTLHGNVCSFCKRAFPSGH, for which the protein stability index turned out to be 2.51.
